T1: TJP3_3, O95049
T1 sequence (O95049 375-456, limits assumed, looked up): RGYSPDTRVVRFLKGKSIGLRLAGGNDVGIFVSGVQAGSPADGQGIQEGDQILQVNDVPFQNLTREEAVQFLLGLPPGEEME

T2: RAPGEF6, Q8TEU7
T2 sequence (Q8TEU7 525-625, limits assumed, looked up): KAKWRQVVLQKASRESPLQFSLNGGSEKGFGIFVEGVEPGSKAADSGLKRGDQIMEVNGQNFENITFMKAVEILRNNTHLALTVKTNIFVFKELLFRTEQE

T3: LIN7A, O14910
T3 sequence (O14910 103-200, limits assumed, looked up): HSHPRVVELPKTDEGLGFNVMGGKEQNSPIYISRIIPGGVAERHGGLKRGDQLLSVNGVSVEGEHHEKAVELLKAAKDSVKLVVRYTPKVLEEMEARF

T4: FRMPD1, Q5SYB0
T4 sequence (Q5SYB0 52-145, limits assumed, looked up): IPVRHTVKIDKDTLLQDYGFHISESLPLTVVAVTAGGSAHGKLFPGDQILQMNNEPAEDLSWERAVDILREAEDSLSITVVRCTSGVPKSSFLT

T5: GRIP1_2, Q9Y3R0
T5 sequence (Q9Y3R0 145-248, limits assumed, looked up): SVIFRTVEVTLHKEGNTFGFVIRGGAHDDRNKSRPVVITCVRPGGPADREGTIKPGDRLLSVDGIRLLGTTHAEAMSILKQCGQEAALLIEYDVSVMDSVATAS

T6: RHPN1, Q8TCX5
T6 sequence (Q8TCX5 508-602, limits assumed, looked up): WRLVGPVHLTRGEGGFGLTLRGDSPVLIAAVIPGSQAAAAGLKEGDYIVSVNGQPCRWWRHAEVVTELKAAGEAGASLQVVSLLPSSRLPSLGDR

T7: RADIL, Q96JH8
T7 sequence (Q96JH8 971-1071, limits assumed, looked up): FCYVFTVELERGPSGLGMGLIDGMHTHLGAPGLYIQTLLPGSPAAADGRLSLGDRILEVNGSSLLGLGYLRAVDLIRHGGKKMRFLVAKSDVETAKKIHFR

T8: PDZRN3_1, Q9UPQ7
T8 sequence (Q9UPQ7 244-349, limits assumed, looked up): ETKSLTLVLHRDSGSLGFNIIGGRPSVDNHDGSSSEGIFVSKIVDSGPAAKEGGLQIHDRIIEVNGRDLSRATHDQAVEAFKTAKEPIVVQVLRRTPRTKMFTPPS

T9: GRIP1_3, Q9Y3R0
T9 sequence (Q9Y3R0 247-346, limits assumed, looked up): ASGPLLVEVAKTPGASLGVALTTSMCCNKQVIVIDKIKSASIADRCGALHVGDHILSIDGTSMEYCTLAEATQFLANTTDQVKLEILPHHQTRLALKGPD

T10: GRIP1_5, Q9Y3R0
T10 sequence (Q9Y3R0 568-668, limits assumed, looked up): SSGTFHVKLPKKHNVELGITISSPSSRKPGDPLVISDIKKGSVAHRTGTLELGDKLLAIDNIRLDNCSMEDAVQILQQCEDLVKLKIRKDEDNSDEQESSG


Legend:
Assay in all cases: holdup assay
Parameters in all cases: key: below the threshold = too weak to quantify, mostly under pKd 3.1 to 4
Conditions in all cases: plain residues with an end cap or a label only (N-terminal biotin on a linker: ado-ado)
[1] = target: T1, TJP3_3, O95049
[2] = target: PDLIM1, O00151
[3] = target: HTRA1, Q92743
[4] = target: MAST2, Q6P0Q8
[5] = target: GORASP2, Q9H8Y8
[6] = target: T2, RAPGEF6, Q8TEU7
[7] = target: TJP2_1, Q9UDY2
[8] = target: NHERF4_2, Q86UT5
[9] = target: GOPC, Q9HD26
[10] = target: T3, LIN7A, O14910
[11] = target: LNX1_1, Q8TBB1
[12] = target: NHERF4_4, Q86UT5
[13] = target: Inadl_10, Q8NI35
[14] = target: T4, FRMPD1, Q5SYB0
[15] = target: T5, GRIP1_2, Q9Y3R0
[16] = target: LNX1_3, Q8TBB1
[17] = target: PDZRN4_1, Q6ZMN7
[18] = target: T6, RHPN1, Q8TCX5
[19] = target: MAGI1_1, Q96QZ7
[20] = target: GORASP1, Q9BQQ3
[21] = target: DLG1_1, Q12959
[22] = target: DLG5_1, Q8TDM6
[23] = target: T7, RADIL, Q96JH8
[24] = target: T8, PDZRN3_1, Q9UPQ7
[25] = target: T9, GRIP1_3, Q9Y3R0
[26] = target: DLG4_3, P78352
[27] = target: SCRIB_1, Q14160
[28] = target: T10, GRIP1_5, Q9Y3R0

Chain of LNX1_1, Q8TBB1 (Q8TBB1 261-371): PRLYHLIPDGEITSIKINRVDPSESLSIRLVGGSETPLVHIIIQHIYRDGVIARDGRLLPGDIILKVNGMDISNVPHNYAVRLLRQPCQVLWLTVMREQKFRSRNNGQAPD
Chain of MAST2, Q6P0Q8 (Q6P0Q8 1099-1202): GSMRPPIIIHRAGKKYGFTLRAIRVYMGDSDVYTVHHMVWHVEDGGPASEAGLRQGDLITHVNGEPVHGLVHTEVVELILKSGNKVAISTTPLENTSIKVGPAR
Chain of DLG5_1, Q8TDM6 (Q8TDM6 617-713): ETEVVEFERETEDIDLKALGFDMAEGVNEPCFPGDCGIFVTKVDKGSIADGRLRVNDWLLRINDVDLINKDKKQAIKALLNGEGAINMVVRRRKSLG
Chain of PDZRN4_1, Q6ZMN7 (Q6ZMN7 213-318): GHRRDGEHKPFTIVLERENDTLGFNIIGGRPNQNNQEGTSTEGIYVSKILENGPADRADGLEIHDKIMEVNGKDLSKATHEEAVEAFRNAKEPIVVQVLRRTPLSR
Chain of PDLIM1, O00151 (O00151 1-87): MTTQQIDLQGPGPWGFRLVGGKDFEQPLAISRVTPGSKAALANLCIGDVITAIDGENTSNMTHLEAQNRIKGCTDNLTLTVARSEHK
Chain of GORASP1, Q9BQQ3 (Q9BQQ3 1-208): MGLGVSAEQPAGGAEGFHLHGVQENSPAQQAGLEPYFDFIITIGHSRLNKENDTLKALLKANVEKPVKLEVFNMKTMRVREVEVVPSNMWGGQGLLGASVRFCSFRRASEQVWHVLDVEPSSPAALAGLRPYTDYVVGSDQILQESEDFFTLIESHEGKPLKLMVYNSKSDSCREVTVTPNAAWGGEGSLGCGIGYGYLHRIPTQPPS
Chain of HTRA1, Q92743 (Q92743 360-477): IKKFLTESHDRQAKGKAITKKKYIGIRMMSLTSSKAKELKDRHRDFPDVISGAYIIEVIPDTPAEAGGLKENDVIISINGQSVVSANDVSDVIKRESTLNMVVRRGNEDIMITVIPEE
Chain of TJP2_1, Q9UDY2 (Q9UDY2 24-128): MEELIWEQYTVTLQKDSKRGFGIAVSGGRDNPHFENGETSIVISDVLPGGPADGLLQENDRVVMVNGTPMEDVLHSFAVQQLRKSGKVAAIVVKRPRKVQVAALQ
Chain of Inadl_10, Q8NI35 (Q8NI35 1673-1763): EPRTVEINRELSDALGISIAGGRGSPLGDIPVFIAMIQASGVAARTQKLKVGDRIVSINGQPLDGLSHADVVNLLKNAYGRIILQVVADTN
Chain of DLG4_3, P78352 (P78352 306-403): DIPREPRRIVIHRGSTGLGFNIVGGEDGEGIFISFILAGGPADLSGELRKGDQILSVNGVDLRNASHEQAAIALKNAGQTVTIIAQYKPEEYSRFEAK
Chain of SCRIB_1, Q14160 (Q14160 718-814): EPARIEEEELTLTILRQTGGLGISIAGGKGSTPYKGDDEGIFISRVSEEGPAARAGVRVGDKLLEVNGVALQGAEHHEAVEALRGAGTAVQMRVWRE
Chain of NHERF4_4, Q86UT5 (Q86UT5 464-550): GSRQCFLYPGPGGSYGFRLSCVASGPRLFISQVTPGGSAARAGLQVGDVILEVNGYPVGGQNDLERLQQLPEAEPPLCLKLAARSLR
Chain of MAGI1_1, Q96QZ7 (Q96QZ7 1-106): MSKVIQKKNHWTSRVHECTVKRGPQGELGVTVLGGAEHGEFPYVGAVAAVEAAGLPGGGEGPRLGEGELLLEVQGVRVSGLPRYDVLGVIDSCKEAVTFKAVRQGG
Chain of LNX1_3, Q8TBB1 (Q8TBB1 500-596): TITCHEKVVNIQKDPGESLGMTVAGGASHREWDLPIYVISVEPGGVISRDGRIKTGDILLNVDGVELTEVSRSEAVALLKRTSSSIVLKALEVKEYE
Chain of NHERF4_2, Q86UT5 (Q86UT5 220-308): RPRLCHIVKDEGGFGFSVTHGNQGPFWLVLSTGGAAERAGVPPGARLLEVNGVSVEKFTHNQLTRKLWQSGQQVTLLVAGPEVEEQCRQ

| Binder | pKd [1] | pKd [2] | pKd [3] | pKd [4] | pKd [5] | pKd [6] | pKd [7] | pKd [8] | pKd [9] | pKd [10] | pKd [11] | pKd [12] | pKd [13] | pKd [14] | pKd [15] | pKd [16] | pKd [17] | pKd [18] | pKd [19] | pKd [20] | also measured |
| --- | --- | --- | --- | --- | --- | --- | --- | --- | --- | --- | --- | --- | --- | --- | --- | --- | --- | --- | --- | --- | --- |
| PLATCDETSI [SEMA4F, O95754] | below the threshold | below the threshold | 3.89 | 5.42 | below the threshold | below the threshold | below the threshold | below the threshold | below the threshold | below the threshold | below the threshold | below the threshold | below the threshold | below the threshold | below the threshold | below the threshold | 4.33 | 4.93 | below the threshold | below the threshold | pKd [21]: 3.59; pKd [22]: below the threshold; pKd [23]: below the threshold; pKd [24]: 4.03; pKd [25]: below the threshold; pKd [26]: below the threshold; pKd [27]: 4.92; pKd [28]: below the threshold |
| IKLETKKTKL [SLC15A2, Q16348] | below the threshold | below the threshold | below the threshold | 5.56 | below the threshold | 3.48 | 3.85 | 3.63 | 4.29 | below the threshold | 3.79 | below the threshold | below the threshold | below the threshold | below the threshold | below the threshold | 3.56 | 3.76 | below the threshold | below the threshold | pKd [21]: below the threshold; pKd [22]: 3.53; pKd [23]: below the threshold; pKd [24]: below the threshold; pKd [25]: below the threshold; pKd [26]: below the threshold; pKd [27]: 3.79; pKd [28]: below the threshold |
| FVFESRKEIL [TBPL1, P62380] | below the threshold | below the threshold | 3.89 | 4.95 | below the threshold | below the threshold | below the threshold | below the threshold | below the threshold | below the threshold | below the threshold | below the threshold | below the threshold | below the threshold | below the threshold | below the threshold | below the threshold | below the threshold | below the threshold | 3.57 | pKd [21]: below the threshold; pKd [22]: below the threshold; pKd [23]: below the threshold; pKd [24]: below the threshold; pKd [25]: below the threshold; pKd [26]: below the threshold; pKd [27]: below the threshold; pKd [28]: below the threshold |
| GTMFLRETSL [GUCY1A2, P33402] | below the threshold | 3.78 | 3.77 | 5.68 | below the threshold | below the threshold | below the threshold | below the threshold | 4.43 | 4.35 | 3.73 | below the threshold | below the threshold | below the threshold | below the threshold | below the threshold | 5.71 | 4.8 | below the threshold | below the threshold | pKd [21]: 4.23; pKd [22]: below the threshold; pKd [23]: below the threshold; pKd [24]: 6.34; pKd [25]: below the threshold; pKd [26]: 4.86; pKd [27]: 5.69; pKd [28]: below the threshold |
